Measured values reported in patent US6699869.

Tested on: (D)FPR-PNA

Substance: bovine thrombin (from Sigma)
- Kcat/KM of substrate hydrolysis: thrombin: Kcat/KM=2.20×10^7 M^-1 S^-1
